# Results as given in patent US20180009871A1 (INTARCIA THERAPEUTICS, published 2018).
# Where no end group is shown, it is not given here. [ ]: non-standard residue; d: D form. Aib = CC(C)(N)C(=O)O
# B1: Compound A64 (peptide)
# peptide: YTHGTFTSDYSKYLD[Aib]ARAQEFV[Aib]WLEDEPSSGAPPPS-OH
# modifications: N-terminus assumed
# SMILES: CC(C)C[C@H](NC(=O)[C@H](Cc1ccc(O)cc1)NC(=O)[C@H](CCCCN)NC(=O)[C@H](CO)NC(=O)[C@H](Cc1ccc(O)cc1)NC(=O)[C@H](CC(=O)O)NC(=O)[C@H](CO)NC(=O)[C@@H](NC(=O)[C@H](Cc1ccccc1)NC(=O)[C@@H](NC(=O)CNC(=O)[C@H](Cc1c[nH]cn1)NC(=O)[C@@H](NC(=O)[C@@H](N)Cc1ccc(O)cc1)[C@@H](C)O)[C@@H](C)O)[C@@H](C)O)C(=O)N[C@@H](CC(=O)O)C(=O)NC(C)(C)C(=O)N[C@@H](C)C(=O)N[C@@H](CCCNC(=N)N)C(=O)N[C@@H](C)C(=O)N[C@@H](CCC(N)=O)C(=O)N[C@@H](CCC(=O)O)C(=O)N[C@@H](Cc1ccccc1)C(=O)N[C@H](C(=O)NC(C)(C)C(=O)N[C@@H](Cc1c[nH]c2ccccc12)C(=O)N[C@@H](CC(C)C)C(=O)N[C@@H](CCC(=O)O)C(=O)N[C@@H](CC(=O)O)C(=O)N[C@@H](CCC(=O)O)C(=O)N1CCC[C@H]1C(=O)N[C@@H](CO)C(=O)N[C@@H](CO)C(=O)NCC(=O)N[C@@H](C)C(=O)N1CCC[C@H]1C(=O)N1CCC[C@H]1C(=O)N1CCC[C@H]1C(=O)N[C@@H](CO)C(=O)O)C(C)C
# B2: Compound A65 (peptide)
# peptide: YSHGTFTSDYSKYLD[Aib]KRAQEFV[Aib]WLEDEPKSKEPPPS-NH2
# modifications: N-terminus assumed
# SMILES: CC(C)C[C@H](NC(=O)[C@H](Cc1ccc(O)cc1)NC(=O)[C@H](CCCCN)NC(=O)[C@H](CO)NC(=O)[C@H](Cc1ccc(O)cc1)NC(=O)[C@H](CC(=O)O)NC(=O)[C@H](CO)NC(=O)[C@@H](NC(=O)[C@H](Cc1ccccc1)NC(=O)[C@@H](NC(=O)CNC(=O)[C@H](Cc1c[nH]cn1)NC(=O)[C@H](CO)NC(=O)[C@@H](N)Cc1ccc(O)cc1)[C@@H](C)O)[C@@H](C)O)C(=O)N[C@@H](CC(=O)O)C(=O)NC(C)(C)C(=O)N[C@@H](CCCCN)C(=O)N[C@@H](CCCNC(=N)N)C(=O)N[C@@H](C)C(=O)N[C@@H](CCC(N)=O)C(=O)N[C@@H](CCC(=O)O)C(=O)N[C@@H](Cc1ccccc1)C(=O)N[C@H](C(=O)NC(C)(C)C(=O)N[C@@H](Cc1c[nH]c2ccccc12)C(=O)N[C@@H](CC(C)C)C(=O)N[C@@H](CCC(=O)O)C(=O)N[C@@H](CC(=O)O)C(=O)N[C@@H](CCC(=O)O)C(=O)N1CCC[C@H]1C(=O)N[C@@H](CCCCN)C(=O)N[C@@H](CO)C(=O)N[C@@H](CCCCN)C(=O)N[C@@H](CCC(=O)O)C(=O)N1CCC[C@H]1C(=O)N1CCC[C@H]1C(=O)N1CCC[C@H]1C(=O)N[C@@H](CO)C(N)=O)C(C)C
# Molecular target: human glucagon receptor (GCGR) (human, UniProt P47871 26-477)
# Assay: cell-based or functional assay
row,Binder,hGCGR pEC50 (cAMP) [pEC50]
1,B1,10.7
2,YTHGTFTSDYSKYLDSARAQEFVKWLEDEPSSGAPPPS-OH [Compound A63],10.4
3,B2,12.5

# Molecular target: human GLP-1 receptor (GLP-1R) (human, UniProt P43220 24-463)
# Assay: cell-based or functional assay
# Chain of human GLP-1 receptor (GLP-1R) (P43220 24-463): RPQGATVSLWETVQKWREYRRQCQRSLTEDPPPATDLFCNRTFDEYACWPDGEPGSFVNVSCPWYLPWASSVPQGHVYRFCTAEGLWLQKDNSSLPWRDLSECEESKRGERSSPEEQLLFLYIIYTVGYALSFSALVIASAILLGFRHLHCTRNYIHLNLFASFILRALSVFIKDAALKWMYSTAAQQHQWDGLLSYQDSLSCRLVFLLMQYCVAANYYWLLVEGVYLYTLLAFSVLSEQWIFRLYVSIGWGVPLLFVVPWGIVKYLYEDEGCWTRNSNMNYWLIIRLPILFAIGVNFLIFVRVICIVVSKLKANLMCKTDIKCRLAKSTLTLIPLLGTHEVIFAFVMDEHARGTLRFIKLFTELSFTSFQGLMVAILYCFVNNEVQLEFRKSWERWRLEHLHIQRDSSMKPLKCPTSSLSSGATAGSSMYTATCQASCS
row,Binder,hGLP1 pEC50 (cAMP) [pEC50]
1,B1,< 9
2,YTHGTFTSDYSKYLDSARAQEFVKWLEDEPSSGAPPPS-OH [Compound A63],< 9
3,B2,< 9
